Results taken from US20030092616A1, “STAT6 activation gene” (priority 2001, published 2003).

B1: 6 (nucleic acid, listed as Homo sapiens)
chain: TAAAAGAAGAGAAGAGGCTAAAGAAGAAAAGAAGAAAATCAACTTCTTCTTCAAGTGTTTCTTCTGCTGATGAATCAGTGTCTTCATCATCATCCTCTTCCTCTTCTGGTCACAAAAGGCATAAGAAACATAAGAGGAACCGTTCAGAGTCTTCTCGCAGTTCCAGAAGGCATTCATCTAGGGCATCCTCAAATCAGATAGATCAGAATAGGAAAGATGAGTGCTACCCAGTTCCAGCTAATACTTCAGCATCTTTTCTTAACCATAAACAAGAAGTGGAGAAACTACTGGGGAAGCAGGATAGGTTACAGTATGAAAAGACACAGATAAAAGAGAAAGATAGATGCCCTCTCTCTTCATCTTCACTTGAAATACCGGATGATTTTGGAGGTAGGTCTGAAGATCCAAGAGATTTTTATAACAGCTATAAAACCCAAGCAGGTAGTAGCAAAACAGAAAAGCCATATAAATCAGAAAGACATTTTTCCAGTAGAAGAAATTCCTCAGATTCCTTCTGTAGGAATTCAGAGGACAAGATTTATGGTTATAGGAGATTTGAAAAGGATATAGAGGGAAGAAAAGAGCACTATAGAAGGTGGGAACCAGGTTCTGTGAGGCATTCTACCTCACCAGCAAGCTCAGAATACTCTTGGAAGTCAGTTGAGAAATACAAAAAATACGCTCACTCTGGATCACGTGATTTCAGTAGACATGAGCAAAGATACCGTTTAAATACAAATCAAGGAGAATATGAAAGAGAGGACAATTATGGGGAGGATATCAAAACAGAGGTTCCAGAAGAAGATGCACTAAGTAGCAAAGAACACTCAGAAAGCAGTGTTAAGAAAAATTTACCTCAGAATTTACTGAATATATTTAATCAGATAGCTGAATTTGAAAAAGAAAAAGGAAATAAGTCAAAAAATTAATACACCAAGGATATCGGCACCATTACACAAAATGCCATTAAGTGAAGTTTTTGGTTGTATTAGTCATAACAGTTGAGTGCAGAAATCTCTGCTTCTAAAATTATTTGTAGAGATTACAGGAAACAAATGCTTTTAAGTAAGTTTTTCTCAAATTTTGTTTCAGTTCTAGGTCCCTTGTCACAGCTTGGTTTTTAGACTTTTTATGTATATGTTTATGTACAGTATATTACTCTTGACAGTTTGAATTTCTTCACCTAAAGATAATTCTCTGAAAGTACTGTTTCTTCATTCTATTGCGGTATATGAGAATTCCTGGGTGCATCTTATTCTGCTGTTTGAGAGAAAAATTTGTGCATTGAACACTTGGATCATTTTTATAAAAATTAATTTCATTTTCTTTTCTGTTAAATTAAAAATCGTCAGCTTTTGAAAGAT
modifications: CDS (379)..(567)
B2: 115 (nucleic acid, listed as Homo sapiens)
chain: GTTTTCCGCCGTCCGTCCGGGCGGGCGGGCGCAGAGTCCCGCGGGCGGCGCGGAAGCGGCGGCGGCGCGGCCGGGGCAGCCATGTCGCCATTGTCTGCGGCGCGGGCGGCCCTGCGGGTCTACGCGGTAGGCGCCGCGGTGATCCTGGCGCAGCTGCTGCGGCGCTGCCGCGGGGGCTTCCTGGAGCCAGTTTTCCCCCCACGACCTGACCGTGTCGCTATAGTGACGGGAGGGACAGATGGCATTGGCTATTCTACAGCGAAGCATCTGGCGAGACTTGGCATGCATGTTATCATAGCTGGAAATAATGACAGCAAAGCCAAACAAGTTGTAAGCAAAATAAAAGAAGAAACCTTGAACGACAAAGTGGAATTTTTATACTGTGACTTGGCTTCCATGACTTCCATCCGGCAGTTTGTGCAGAAGTTCAAGATGAAGAAGATTCCTCTCCATGTCCTGATCAACAATGCTGGGGTGATGATGGTCCCTCAGAGGAAAACCAGAGATGGATTCGAAGAACATTTCGGCCTGAACTACCTAGGGCACTTCCTGCTGACCAACCTTCTCTTGGATACGCTGAAAGAGTCTGGGTCCCCTGGCCACAGTGCGAGGGTGGTCACCGTCTCCTCTGCCACCCATTACGTCGCTGAGCTGAACATGGATGACCTTCAGAGCAGTGCCTGCTACTCACCCCACGCAGCCTACGCCCAGAGCAAGCTGGCCCTTGTCCTGTTCACCTACCACCTCCAGCGGCTGCTGGCGGCTGAGGGAAGCCACGTGACCGCCAACGTGGTGGACCCCGGGGTGGTCAACACGGACCTCTACAAGCACGTGTTCTGGGCCACCCGTCTGGCGAAGAAGCTTCTCGGCTGGTTGCTTTTCAAGACCCCCGATGAAGGAGCGTGGACTTCCATCTACGCAGCAGTCACCCCAGAGCTGGAAGGAGTTGGTGGCCGTTACCTATACAACGAGAAAGAGACCAAGTCCCTCCACGTCACCTACAACCAGAAACTGCAGCAGCAGCTGTGGTCTAAGAGTTGTGAGATGACTGGGGTCCTTGATGTGACCCTGTGATATCCTGTCTCAGGATAGCTGCTGCCCCAAGAAACACATTGCACCTGCCAATAGCTTGTGGGTCTGTGAAGACTGCGGTGTTTGAGTTTCTCACACCCACCTGCCCACAGGGCTCTGTCCTCTAGTTTTGAGACAGCTGCCTCAACCTCTGCAGAACTTCAAGAAGCCAAATAAACATTTTGGAGGATAATCACCCCAAGTGGTCTTCAACCATAAACTTTGTGATTCCAAAGTGCCCAGTTGTCACAGGTGCCATAAATAATTACATTTTCCAACAT
modifications: CDS (82)..(1071)
B3: 413 (nucleic acid, listed as Homo sapiens)
chain: GAGGAGGCCGCGCCAGTGACAGCGATGGCGGCGGAGTCGGCGCTCCAAGTTGTGGAGAAGCTGCAGGCGCGCCTGGCCGCGAACCCGGACCCTAAGAAGCTATTGAAATATTTGAAGAAACTCTCCACCCTGCCTATTACAGTAGACATTCTTGCGGAGACTGGGGTTGGGAAAACAGTAAATAGCTTGCGAAAACACGAGCATGTTGGAAGCTTTGCCAGGGACCTAGTGGCCCAGTGGAAGAAGCTGGTTCCTGTGGAACGAAATGCTGAGCCTGATGAACAGGACTTTGAGAAGAGCAATTCCCGAAAGCGCCCTCGGGATGCCCTGCAGAAGGAGGAGGAGATGGAGGGGGACTACCAAGAAACCTGGAAAGCCACGGGGAGCCGATCCTATAGCCCTGACCACAGGCAGAAGAAACATAGGAAACTCTCGGAGCTCGAGAGACCTCACAAAGTGTCTCACGGTCATGAGAGGAGAGATGAGAGAAAGAGGTGTCACAGAATGTCACCAACTTACTCTTCAGACCCTGAGTCTTCTGATTATGGCCATGTTCAATCCCCTCCATCTTGTACCAGTCCTCATCAGATGTACGTCGACCACTACAGATCCCTGGAGGAGGACCAGGAGCCCATTGTTTCACACCAGAAGCCTGGGAAAGGCCACAGCAATGCCTTTCAGGACAGACTCGGGGCCAGCCAAGAACGACACCTGGGTGAACCCCATGGGAAAGGGGTTGTGAGTCAAAACAAGGAGCACAAATCTTCCCACAAGGACAAACGCCCCGTGGATGCCAAGAGTGATGAGAAGGCCTCTGTGGTGAGCAGAGAGAAATCACACAAGGCCCTCTCCAAAGAGGAGCCGGCCTATGATGGCCCAAGCACCAGCAGTGCCCACTTGGCACCAGTGGTCAGCAGCACTGTTTCCTATGATCCTAGGAAACCCACTGTGAAGAAAATTGCCCCAATGATGGCCAAGACAATTAAAGCTTTCAAGAACAGATTCTCCCGACGATAAACTGAGGACTTGCCTTGGAAATGGAATCTGGGGAGGCAGGAATACAAGGACAGTGGGGGTTGGGGAATGGAATTCTACAGGAGACTGGAGTCTTGCTTTGTGGATCCTTTTGGTCTCCGAGTCCTGCAGTCTGCAGGTGCTGCCCCTGGGAACCTGCGTGCCACAGCCCCGCCTCCCTGCCTGGAGCACACTTTAGAATTCTGAAGATGTGAAGCCTCTGTCTCACTGAGGATTTTAAAGGTCAATTATACTTTTGTTGTTCATTAGCATCTTTGTAAACTATAAGACGTAGTTTTAATTAATAAATATTGCCCCCAGATTGTATTT
modifications: CDS (25)..(1014)
B4: 117 (nucleic acid, listed as Homo sapiens)
chain: GAGCGGCGATGCCGGGGCGGCGGCGCCCGAGTCCGGAGCCCGAGCCCGAAGAGGAGCCGCCCCGGCCCCGCGCCCCCCCGGGAGCTCCGGGCCCTGGGCCTGGTTCGGGAGCCCCCGGCAGCCAAGAGGAGGAGGAGGAGCCGGGACTGGTCGAGGGTGACCCGGGGGACGGCGCCATTGAGGACCCGGAGCTGGAAGCTATCAAAGCTCGAGTCAGGGAGATGGAGGAAGAAGCTGAGAAGCTAAAGGAGCTACAGAACGAGGTAGAGAAGCAGATGAATATGAGTCCACCTCCAGGCAATGCTGGCCCGGTGATCATGTCCATTGAGGAGAAGATGGAGGCTGATGCCCGTTCCATCTATGTTGGCAATGTGGACTATGGTGCAACAGCAGAAGAGCTGGAAGCTCACTTTCATGGCTGTGGTTCAGTCAACCGTGTTACCATACTGTGTGACAAATTTAGTGGCCATCCCAAAGGGTTTGCGTATATAGAGTTCTCAGACAAAGAGTCAGTGAGGACTTCCTTGGCCTTAGATGAGTCCCTATTTAGAGGAAGGCAAATCAAGGTGATCCCAAAACGAACCAACAGACCAGGCATCAGCACAACAGACCGGGGTTTTCCACGAGCCCGCTACCGCGCCCGGACCACCAACTACAACAGCTCCCGCTCTCGATTCTACAGTGGTTTTAACAGCAGGCCCCGGGGTCGCGTCTACAGGGGCCGGGCTAGAGCGACATCATGGTATTCCCCTTACTAAAAAAAGTGTGTATTAGGAGGAGAGAGAGGAAAAAAAGAGGAAAGAAGGAAAAAAAAAAGAATTAAAAAAAAAAAAAAGAAAAAC
modifications: CDS (9)..(755)
B5: 397 (nucleic acid, listed as Homo sapiens)
chain: ACAGATGAAACTTTTTAGGTCTCAAAGAAATCTTTACATTTCTGGATTTTCCCTATTTTTTTGGCTAGTTTTGAGACGTCTGGTTACGCTTATTACTCAACTGGCAAAAGAACTGTCAAACAAAGGTGTACTTAAAACTCAAGCAGAAAATACTAACAAGGCTGCCAAAAAATTTATGGAAGAAAACGAAAAACTAAAAAGGATTTTGAAAAGCCATGGTAAAGATGAAGAATGTGTTTTGGAAGCAGAAAATAAAAAACTAGTAGAAGACCAGGAGAAACTGAAAACTGAATTAAGGAAGACTTCAGATGCCCTTTCTAAGGCACAAAATGATGTGATGGAAATGAAGATGCAGTCAGAGAGACTTTCGAAAGAATATGATCAACTCCTGAAAGAACACTCTGAACTTCAGGATCGTTTAGAAAGAGGCAACAAGAAAAGACTGTGAACTTTATAAAAGACACTTGCAATATACTGTGTCAAAATGATAATTTTGTTATGTTAGCCTCTAGAAAATTTAAGTTCAGAAAAATGCACTATGACCGGTTCGTAATTTTTTTAATGCCACACATAGGTTGTATTGTAATGGCATTATCAAAATATTTGATGATGTTTCAGATATATTGCAAAGTCTGTATTCCAGCTCTTAAGAAAAATATAAGCATGTTAAATACCATATTTACATATTGATAATGTCATTGGTATATGGTGGCTGTTTACCAATAAAAGGAAAAAATTCATT
modifications: CDS (5)..(445)

Tested on: STAT6
Assay: Screening of full-length cDNA clones for promotion of STAT6 activation (luciferase reporter N4×8-luc)
Type: cell-based
Conditions: NIH3T3 cells cotransfected with N4×8-luc reporter and cDNA plasmid; 48 h culture, then mouse IL-4 0.5 ng/ml for 6 h
Method in brief: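 NIH3T3 cells cotransfected with STAT6-responsive N4×8-luc reporter (100 ng) and full-length cDNA, cultured 48 h, then given mouse IL-4 at 0.5 ng/ml final for 6 h. Luciferase activity compared with reporter plus null-vector control.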

Row | Molecule | Activity = (luciferase activity of the gene of each SEQ ID NO:)/(luciferase activity of pME18S-FL3)
1 | B1 | 127.5
2 | B2 | 8.6
3 | B3 | 3.4
4 | B4 | 10.1
5 | B5 | 32.6
